Measurements: patent publication US8008074B2, “Compositions and methods for improving bone mass through modulation of receptors of PTH and fragments thereof” (The UAB Research Foundation, priority 2006, dated 2011)

Tests used:
PTH1R-TβRII interaction = biological target: T1, PTH1R-TβRII interaction (Homo sapiens, UniProt P37173+Q03431); test: YFP protein-fragment complementation assay, TβRII-YFP1 and PTH1R-YFP2; format: cell-based; conditions: both constructs expressed; plasma membrane
T1 construct: expressed in transfected cells
T1 sequence (Q03431 27-593): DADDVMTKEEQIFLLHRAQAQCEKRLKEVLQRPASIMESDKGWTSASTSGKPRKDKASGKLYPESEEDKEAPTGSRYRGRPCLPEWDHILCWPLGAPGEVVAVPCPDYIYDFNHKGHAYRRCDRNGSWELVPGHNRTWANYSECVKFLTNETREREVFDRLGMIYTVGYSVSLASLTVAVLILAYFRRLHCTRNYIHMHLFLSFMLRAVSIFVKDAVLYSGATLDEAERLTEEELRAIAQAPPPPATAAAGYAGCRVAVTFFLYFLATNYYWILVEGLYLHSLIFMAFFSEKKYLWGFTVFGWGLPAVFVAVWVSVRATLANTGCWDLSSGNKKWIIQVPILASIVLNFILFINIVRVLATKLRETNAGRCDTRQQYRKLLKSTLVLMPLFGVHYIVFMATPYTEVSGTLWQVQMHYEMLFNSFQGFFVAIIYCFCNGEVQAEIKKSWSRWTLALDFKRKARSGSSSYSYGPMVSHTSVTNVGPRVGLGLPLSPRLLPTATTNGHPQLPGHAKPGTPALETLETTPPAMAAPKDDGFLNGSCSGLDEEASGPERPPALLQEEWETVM
T1 sequence (P37173 23-567): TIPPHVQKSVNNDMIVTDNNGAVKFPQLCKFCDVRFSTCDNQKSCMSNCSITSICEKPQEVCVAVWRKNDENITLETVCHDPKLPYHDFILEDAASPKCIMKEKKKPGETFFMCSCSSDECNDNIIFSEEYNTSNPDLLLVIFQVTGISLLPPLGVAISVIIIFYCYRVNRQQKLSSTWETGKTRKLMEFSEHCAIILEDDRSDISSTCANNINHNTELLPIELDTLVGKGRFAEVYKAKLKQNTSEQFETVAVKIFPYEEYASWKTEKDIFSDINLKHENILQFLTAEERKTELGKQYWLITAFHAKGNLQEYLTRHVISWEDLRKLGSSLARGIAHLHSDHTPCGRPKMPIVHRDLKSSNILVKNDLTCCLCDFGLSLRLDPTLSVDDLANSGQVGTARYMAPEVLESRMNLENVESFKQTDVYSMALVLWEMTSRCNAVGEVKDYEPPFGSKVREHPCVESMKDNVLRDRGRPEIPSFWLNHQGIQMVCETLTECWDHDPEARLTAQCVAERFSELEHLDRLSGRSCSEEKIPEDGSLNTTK
From the text: A yellow fluorescent protein (YFP)-based protein-fragment complementation assay (PCA) was employed (Remy et al., 2004). YFP1 fragment was fused into the C-terminal of TβRII. YFP2 fragment was fused into the C-terminal of PTH1R. The PCA strategy was to facilitate visualization of the PTH1R-TβRII interaction through reconstituted YFP in living cells when the interaction brings the complementary fragments of the YFP into close proximity.
The PTH^TMR was then employed in the PCA experiment. […] Almost all the reconstituted YFP associated with PTH^TMR. The observation was further confirmed by the immunostaining of TβRII and PTH1R in the PTH^TMR-treated cells. TβRII, PTH1R, and PTH ligand predominantly colocalize into the same cytoplasmic vesicles (data not shown).

TGFβ/Smad signaling = TGFβ/Smad signaling after PTH pretreatment; format: cell-based; conditions: C2C12 cells; TGFβ stimulation
Description: Panel B is a graph showing the decrease in activity from the SBE-luciferase reporter in the presence of PTH and PTH1R.
It has been reported that TGFβ-induced endocytosis of TGFβ/TβRII is mediated by Sara endosome. The response of TβRII to PTH was analyzed to determine whether it is the same as to TGFβ. […] The observation was confirmed by TGFβ-induced interaction between Smad2 and Smad4.

YFP fluorescence from TβRII-YFP1 and PTH1R-YFP2 (PTH1R-TβRII interaction): did not show such an effect
Substance: TGF-β1: TGF-β ligand used as stimulus and comparator
phosphorylation of Smad2 (TGFβ/Smad signaling): activated
